Legend:
purified protein [1] = substrate: Nc1ncnc2c1ncn2[C@@H]1O[C@H](COP(=O)(O)OP(=O)(O)OP(=O)(O)O)[C@@H](O)[C@H]1O; assay: purified protein; format: biochemical, Mus musculus; settings: 1 mM NMN, 20 mM MgCl2, 20 mM HEPES-KOH pH 7.4, 37°C
purified protein [2] = substrate: NC(=O)c1ccc[n+]([C@@H]2O[C@H](COP(=O)(O)O)[C@@H](O)[C@H]2O)c1; assay: purified protein; format: biochemical, Mus musculus; settings: 1 mM ATP, 20 mM MgCl2, 20 mM HEPES-KOH pH 7.4, 37°C

Row | Protein | Km (purified protein [1]) | Km (purified protein [2])
1 | Nmnat1 (mouse Nmnat1) (Mus musculus) (protein) MDSSKKTEVVLLACGSFNPITNMHLRLFELAKDYMHATGKYSVIKGIISPVGDAYKKKGLIPAHHRIIMAELATKNSHWVEVDTWESLQKEWVETVKVLRYHQEKLATGSCSYPQSSPALEKPGRKRKWADQKQDSSPQKPQEPKPTGVPKVKLLCGADLLESFSVPNLWKMEDITQIVANFGLICITRAGSDAQKFIYESDVLWRHQSNIHLVNEWITNDISSTKIRRALRRGQSIRYLVPDLVQEYIEKHELYNTESEGRNAGVTLAPLQRNAAEAKHNHSTL | 50.4 µM | 27.6 µM
2 | Nmnat1 (mouse Nmnat1) (Mus musculus; H24A) (protein) MDSSKKTEVVLLACGSFNPITNMALRLFELAKDYMHATGKYSVIKGIISPVGDAYKKKGLIPAHHRIIMAELATKNSHWVEVDTWESLQKEWVETVKVLRYHQEKLATGSCSYPQSSPALEKPGRKRKWADQKQDSSPQKPQEPKPTGVPKVKLLCGADLLESFSVPNLWKMEDITQIVANFGLICITRAGSDAQKFIYESDVLWRHQSNIHLVNEWITNDISSTKIRRALRRGQSIRYLVPDLVQEYIEKHELYNTESEGRNAGVTLAPLQRNAAEAKHNHSTL | 47.3 µM | –
3 | Nmnat1 (mouse Nmnat1) (Mus musculus; W170A) (protein) MDSSKKTEVVLLACGSFNPITNMHLRLFELAKDYMHATGKYSVIKGIISPVGDAYKKKGLIPAHHRIIMAELATKNSHWVEVDTWESLQKEWVETVKVLRYHQEKLATGSCSYPQSSPALEKPGRKRKWADQKQDSSPQKPQEPKPTGVPKVKLLCGADLLESFSVPNLAKMEDITQIVANFGLICITRAGSDAQKFIYESDVLWRHQSNIHLVNEWITNDISSTKIRRALRRGQSIRYLVPDLVQEYIEKHELYNTESEGRNAGVTLAPLQRNAAEAKHNHSTL | – | 1400 µM

Source: PMC3162248
